Article PMC8882007, “Syndapin-2 mediated transcytosis of amyloid-β across the blood–brain barrier” (Brain Communications, 2022)

T1: dynamin-2 (mouse (endogenous in bEnd3), UniProt P39054 1-870)
T1 construct: dynamin-2, endogenous in mouse brain endothelial cells (bEnd3); source: endogenous, bEnd3 mouse brain endothelial cells (fixed, permeabilized)
T1 sequence (looked up): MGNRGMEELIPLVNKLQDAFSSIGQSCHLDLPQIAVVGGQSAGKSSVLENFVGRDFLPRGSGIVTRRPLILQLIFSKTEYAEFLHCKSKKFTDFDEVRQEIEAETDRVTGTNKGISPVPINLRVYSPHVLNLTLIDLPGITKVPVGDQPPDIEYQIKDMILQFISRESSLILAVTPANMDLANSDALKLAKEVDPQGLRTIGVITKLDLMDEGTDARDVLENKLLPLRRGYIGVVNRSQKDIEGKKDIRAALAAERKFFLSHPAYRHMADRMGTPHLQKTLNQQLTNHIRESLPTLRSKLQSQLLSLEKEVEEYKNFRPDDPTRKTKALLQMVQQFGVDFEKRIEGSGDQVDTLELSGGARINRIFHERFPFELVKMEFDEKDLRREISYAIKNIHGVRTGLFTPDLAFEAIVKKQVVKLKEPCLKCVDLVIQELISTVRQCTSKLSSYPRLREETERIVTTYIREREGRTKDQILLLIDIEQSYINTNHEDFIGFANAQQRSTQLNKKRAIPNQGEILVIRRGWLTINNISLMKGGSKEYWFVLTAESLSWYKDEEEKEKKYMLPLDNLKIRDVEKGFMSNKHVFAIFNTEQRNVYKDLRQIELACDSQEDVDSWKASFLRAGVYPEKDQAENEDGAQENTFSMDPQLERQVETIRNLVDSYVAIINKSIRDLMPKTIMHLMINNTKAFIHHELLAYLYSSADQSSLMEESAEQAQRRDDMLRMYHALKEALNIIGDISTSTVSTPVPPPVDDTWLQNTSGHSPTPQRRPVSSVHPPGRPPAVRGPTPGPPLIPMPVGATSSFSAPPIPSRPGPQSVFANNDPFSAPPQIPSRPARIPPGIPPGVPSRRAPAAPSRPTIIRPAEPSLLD

T2: EEA-1 (mouse (endogenous in bEnd3), UniProt Q8BL66 1-1411)
T2 construct: EEA-1 (early endosome marker), endogenous in mouse brain endothelial cells (bEnd3); also called early endosomes (EEA-1); source: endogenous, bEnd3 mouse brain endothelial cells (fixed, permeabilized)
T2 sequence (looked up): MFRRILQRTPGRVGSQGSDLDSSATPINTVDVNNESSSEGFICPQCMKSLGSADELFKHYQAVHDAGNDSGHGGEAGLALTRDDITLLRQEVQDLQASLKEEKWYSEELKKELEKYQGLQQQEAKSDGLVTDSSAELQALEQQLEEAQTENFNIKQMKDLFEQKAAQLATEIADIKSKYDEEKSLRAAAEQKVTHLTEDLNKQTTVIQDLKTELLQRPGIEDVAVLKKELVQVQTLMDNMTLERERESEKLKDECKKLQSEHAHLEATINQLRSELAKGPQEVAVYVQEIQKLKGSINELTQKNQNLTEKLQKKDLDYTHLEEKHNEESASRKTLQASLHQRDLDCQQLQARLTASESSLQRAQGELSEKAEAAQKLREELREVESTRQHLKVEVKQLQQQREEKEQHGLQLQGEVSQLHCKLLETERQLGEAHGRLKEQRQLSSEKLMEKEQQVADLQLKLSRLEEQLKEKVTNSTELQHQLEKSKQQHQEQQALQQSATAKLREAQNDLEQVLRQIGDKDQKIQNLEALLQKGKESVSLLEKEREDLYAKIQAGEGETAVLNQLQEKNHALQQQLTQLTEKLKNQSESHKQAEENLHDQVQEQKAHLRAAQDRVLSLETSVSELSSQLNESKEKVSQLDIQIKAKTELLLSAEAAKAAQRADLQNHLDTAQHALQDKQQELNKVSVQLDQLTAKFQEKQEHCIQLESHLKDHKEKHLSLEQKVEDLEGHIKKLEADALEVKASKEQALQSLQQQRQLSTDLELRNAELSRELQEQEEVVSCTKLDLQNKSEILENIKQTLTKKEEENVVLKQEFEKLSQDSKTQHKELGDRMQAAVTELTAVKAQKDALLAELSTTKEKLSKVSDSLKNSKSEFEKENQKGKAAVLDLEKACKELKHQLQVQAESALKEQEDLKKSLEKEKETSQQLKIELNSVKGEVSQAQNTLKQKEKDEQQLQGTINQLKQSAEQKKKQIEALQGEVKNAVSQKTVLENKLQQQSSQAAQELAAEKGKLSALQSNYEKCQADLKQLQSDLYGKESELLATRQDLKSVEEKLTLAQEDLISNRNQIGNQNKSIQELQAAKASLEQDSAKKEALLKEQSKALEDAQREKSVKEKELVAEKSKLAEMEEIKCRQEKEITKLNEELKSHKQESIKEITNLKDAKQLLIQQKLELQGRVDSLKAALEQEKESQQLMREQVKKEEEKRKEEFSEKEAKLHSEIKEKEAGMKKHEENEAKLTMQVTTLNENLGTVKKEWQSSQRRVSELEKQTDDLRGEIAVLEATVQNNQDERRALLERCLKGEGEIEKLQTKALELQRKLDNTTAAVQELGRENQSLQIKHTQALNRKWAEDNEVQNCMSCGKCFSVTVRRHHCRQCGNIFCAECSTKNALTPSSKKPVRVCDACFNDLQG

B1: apolipoprotein E (ligand, mouse (endogenous in bEnd3), UniProt P08226 19-311, looked up)
chain: EGEPEVTDQLEWQSNQPWEQALNRFWDYLRWVQTLSDQVQEELQSSQVTQELTALMEDTMTEVKAYKKELEEQLGPVAEETRARLGKEVQAAQARLGADMEDLRNRLGQYRNEVHTMLGQSTEEIRARLSTHLRKMRKRLMRDAEDLQKRLAVYKAGAREGAERGVSAIRERLGPLVEQGRQRTANLGAGAAQPLRDRAQAFGDRIRGRLEEVGNQARDRLEEVREHMEEVRSKMEEQTQQIRLQAEIFQARLKGWFEPIVEDMHRQWANLMEKIQASVATNPIITPVAQENQ
notes: apolipoprotein E (ApoE), detected in mouse brain endothelial cells (bEnd3); also called ApoE; source: endogenous, bEnd3 mouse brain endothelial cells (fixed, permeabilized)

Tests used:
Test in all cases: proximity ligation; Duolink PLA between two endogenous proteins in polarized bEnd3 monolayers, fixed in 4% PFA and permeabilized with 0.1% Triton X-100; two primary antibodies overnight at 4°C; PLA signal normalized by the number of nuclei; also in shRNA control (scramble) and syndapin-2 knockdown cells, and after FAM-Aβ (1–40) or Aβ monomers, oligomers or fibrils for 15 min
Details in all cases: partners not purified
heavy chain of clathrin = molecular target: T3, heavy chain of clathrin (mouse (endogenous in bEnd3), UniProt Q68FD5 1-1675)
T3 construct: clathrin heavy chain, endogenous in mouse brain endothelial cells (bEnd3); source: endogenous, bEnd3 mouse brain endothelial cells (fixed, permeabilized)

[1] = molecular target: T4, low-density lipoprotein receptor-related protein 1 (mouse (endogenous in bEnd3), UniProt Q91ZX7 20-4545)
T4 construct: low-density lipoprotein receptor-related protein 1 (LRP1), endogenous in mouse brain endothelial cells (bEnd3); also called LRP1; source: endogenous, bEnd3 mouse brain endothelial cells (fixed, permeabilized)
T4 sequence (Q91ZX7 20-4545): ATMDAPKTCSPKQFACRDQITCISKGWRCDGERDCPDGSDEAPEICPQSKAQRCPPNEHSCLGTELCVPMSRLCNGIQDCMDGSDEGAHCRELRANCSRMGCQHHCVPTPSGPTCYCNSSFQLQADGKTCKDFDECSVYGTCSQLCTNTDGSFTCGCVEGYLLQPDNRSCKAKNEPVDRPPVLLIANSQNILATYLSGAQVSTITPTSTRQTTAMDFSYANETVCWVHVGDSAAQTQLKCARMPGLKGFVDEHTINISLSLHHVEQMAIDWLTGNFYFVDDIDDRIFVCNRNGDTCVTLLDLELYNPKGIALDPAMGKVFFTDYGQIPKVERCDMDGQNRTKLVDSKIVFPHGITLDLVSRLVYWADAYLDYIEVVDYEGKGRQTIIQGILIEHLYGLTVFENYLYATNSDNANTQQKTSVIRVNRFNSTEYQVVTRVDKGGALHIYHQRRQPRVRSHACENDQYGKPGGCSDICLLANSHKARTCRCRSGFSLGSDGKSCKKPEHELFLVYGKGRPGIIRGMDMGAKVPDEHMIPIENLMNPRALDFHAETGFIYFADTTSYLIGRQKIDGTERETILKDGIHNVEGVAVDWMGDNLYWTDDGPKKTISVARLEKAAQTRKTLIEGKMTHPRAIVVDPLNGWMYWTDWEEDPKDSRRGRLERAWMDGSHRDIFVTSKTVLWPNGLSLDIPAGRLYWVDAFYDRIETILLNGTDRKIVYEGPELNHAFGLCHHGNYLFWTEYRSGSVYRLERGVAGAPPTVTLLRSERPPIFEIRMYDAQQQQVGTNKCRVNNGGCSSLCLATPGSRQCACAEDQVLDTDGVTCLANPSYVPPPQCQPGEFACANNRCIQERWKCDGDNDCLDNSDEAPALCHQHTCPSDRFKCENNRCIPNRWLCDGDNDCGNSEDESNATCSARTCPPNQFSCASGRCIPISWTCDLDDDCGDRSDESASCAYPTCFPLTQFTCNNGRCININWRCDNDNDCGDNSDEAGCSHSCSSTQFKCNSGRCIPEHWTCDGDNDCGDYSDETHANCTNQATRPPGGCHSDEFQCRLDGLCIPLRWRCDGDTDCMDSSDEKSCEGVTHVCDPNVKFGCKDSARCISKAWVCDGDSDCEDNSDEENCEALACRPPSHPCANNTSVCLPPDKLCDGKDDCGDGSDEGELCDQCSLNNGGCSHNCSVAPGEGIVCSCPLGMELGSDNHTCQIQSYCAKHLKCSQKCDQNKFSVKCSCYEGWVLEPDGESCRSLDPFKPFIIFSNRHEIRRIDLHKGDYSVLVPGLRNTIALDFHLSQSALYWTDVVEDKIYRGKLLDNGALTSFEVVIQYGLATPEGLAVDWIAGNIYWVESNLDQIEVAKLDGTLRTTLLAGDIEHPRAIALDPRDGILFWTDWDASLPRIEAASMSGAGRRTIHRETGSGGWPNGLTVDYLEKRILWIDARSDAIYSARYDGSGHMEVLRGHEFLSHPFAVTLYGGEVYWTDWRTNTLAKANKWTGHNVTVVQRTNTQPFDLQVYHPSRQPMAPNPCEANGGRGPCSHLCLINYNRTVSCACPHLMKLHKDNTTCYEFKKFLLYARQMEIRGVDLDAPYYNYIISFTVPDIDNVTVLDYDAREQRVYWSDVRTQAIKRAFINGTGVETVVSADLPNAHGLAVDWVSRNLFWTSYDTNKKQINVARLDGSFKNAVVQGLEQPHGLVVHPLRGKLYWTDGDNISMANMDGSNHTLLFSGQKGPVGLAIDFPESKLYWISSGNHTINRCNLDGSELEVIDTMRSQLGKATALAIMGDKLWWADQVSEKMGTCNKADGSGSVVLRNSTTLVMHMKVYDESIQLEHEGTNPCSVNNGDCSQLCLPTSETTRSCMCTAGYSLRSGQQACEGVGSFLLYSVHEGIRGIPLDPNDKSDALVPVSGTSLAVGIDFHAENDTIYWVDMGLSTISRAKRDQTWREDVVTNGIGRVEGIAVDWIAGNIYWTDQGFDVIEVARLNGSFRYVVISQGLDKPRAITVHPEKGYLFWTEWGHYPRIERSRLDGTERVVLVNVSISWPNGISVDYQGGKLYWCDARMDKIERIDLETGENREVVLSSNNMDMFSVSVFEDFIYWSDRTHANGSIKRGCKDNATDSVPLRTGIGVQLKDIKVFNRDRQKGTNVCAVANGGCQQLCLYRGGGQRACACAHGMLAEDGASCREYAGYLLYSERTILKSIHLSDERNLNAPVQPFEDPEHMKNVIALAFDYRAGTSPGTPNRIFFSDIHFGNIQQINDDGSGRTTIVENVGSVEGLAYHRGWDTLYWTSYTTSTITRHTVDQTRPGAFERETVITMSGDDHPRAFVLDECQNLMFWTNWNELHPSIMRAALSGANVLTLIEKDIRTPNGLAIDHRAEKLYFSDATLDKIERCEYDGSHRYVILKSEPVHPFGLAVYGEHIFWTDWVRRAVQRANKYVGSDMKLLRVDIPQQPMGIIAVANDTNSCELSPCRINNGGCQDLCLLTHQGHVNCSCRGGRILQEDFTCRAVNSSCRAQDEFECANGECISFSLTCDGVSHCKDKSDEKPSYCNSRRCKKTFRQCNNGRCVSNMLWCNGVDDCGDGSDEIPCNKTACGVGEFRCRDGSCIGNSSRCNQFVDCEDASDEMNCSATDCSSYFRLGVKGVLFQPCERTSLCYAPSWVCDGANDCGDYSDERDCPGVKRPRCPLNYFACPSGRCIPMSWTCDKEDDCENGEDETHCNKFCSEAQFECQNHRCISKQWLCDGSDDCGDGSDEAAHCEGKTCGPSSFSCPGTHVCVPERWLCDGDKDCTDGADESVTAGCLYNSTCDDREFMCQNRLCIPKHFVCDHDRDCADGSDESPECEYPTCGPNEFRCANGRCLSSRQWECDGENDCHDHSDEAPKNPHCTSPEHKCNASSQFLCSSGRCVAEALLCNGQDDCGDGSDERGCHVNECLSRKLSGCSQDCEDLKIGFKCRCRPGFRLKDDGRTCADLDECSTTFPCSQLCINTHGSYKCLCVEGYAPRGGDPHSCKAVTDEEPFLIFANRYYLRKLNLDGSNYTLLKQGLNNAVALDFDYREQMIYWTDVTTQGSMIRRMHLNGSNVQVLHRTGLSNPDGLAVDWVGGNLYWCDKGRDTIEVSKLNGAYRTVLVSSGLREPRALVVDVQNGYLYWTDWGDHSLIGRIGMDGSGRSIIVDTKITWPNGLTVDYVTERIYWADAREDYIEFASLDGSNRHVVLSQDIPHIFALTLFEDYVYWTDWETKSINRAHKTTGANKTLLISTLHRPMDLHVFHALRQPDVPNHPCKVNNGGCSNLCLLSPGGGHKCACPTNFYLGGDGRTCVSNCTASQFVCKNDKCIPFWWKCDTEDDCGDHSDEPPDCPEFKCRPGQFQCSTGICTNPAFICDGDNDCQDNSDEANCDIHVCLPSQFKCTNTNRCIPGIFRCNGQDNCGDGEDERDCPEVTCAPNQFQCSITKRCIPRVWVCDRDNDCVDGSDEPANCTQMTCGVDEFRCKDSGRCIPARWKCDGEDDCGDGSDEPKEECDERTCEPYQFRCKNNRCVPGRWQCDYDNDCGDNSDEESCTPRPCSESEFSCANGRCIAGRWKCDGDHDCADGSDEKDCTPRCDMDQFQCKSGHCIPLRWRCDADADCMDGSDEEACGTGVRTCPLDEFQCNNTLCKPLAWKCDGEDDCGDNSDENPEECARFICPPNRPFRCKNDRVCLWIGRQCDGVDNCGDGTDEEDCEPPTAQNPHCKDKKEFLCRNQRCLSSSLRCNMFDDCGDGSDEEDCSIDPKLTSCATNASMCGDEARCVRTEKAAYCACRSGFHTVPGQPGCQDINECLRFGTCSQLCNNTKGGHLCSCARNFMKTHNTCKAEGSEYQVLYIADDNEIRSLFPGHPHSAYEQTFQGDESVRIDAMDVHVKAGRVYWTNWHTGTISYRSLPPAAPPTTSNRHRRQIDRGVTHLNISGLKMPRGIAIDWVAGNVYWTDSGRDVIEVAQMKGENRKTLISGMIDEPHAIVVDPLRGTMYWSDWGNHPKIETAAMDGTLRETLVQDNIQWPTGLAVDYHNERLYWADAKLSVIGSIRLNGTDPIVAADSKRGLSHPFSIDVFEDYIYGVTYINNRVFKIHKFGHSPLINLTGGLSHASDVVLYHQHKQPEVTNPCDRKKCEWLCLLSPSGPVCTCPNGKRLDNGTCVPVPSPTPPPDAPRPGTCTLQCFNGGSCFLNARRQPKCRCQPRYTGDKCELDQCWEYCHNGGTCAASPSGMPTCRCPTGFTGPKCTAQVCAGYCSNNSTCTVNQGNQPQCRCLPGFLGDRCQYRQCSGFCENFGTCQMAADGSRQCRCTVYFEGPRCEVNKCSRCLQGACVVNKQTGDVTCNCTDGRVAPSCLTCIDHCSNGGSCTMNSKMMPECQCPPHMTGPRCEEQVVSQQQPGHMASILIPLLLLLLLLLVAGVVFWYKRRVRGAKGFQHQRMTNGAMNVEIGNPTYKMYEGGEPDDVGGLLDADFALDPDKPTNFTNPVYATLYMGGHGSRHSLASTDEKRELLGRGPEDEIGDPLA

β-actin = β-actin (mouse (endogenous in bEnd3), UniProt P60710 1-375)
dynamin-2 = molecular target: T1, dynamin-2
EEA-1 = molecular target: T2, EEA-1
apolipoprotein E = molecular target: B1

PLA dots per cell (heavy chain of clathrin) [dots per cell] | PLA dots per cell [1] [dots per cell] | PLA dots per cell (β-actin) [dots per cell] | PLA dots per cell (dynamin-2) [dots per cell] | PLA dots per cell (EEA-1) [dots per cell] | PLA dots per cell (apolipoprotein E) [dots per cell] | Binder
~150 | ~250 | ~150 | ~150 | < 20 | ~250 | syndapin-2 (natural protein, mouse (endogenous in bEnd3), UniProt Q9WVE8 1-486, looked up, syndapin-2 (PACSIN-2), F-BAR protein, endogenous in mouse brain endothelial cells (bEnd3); also called PACSIN-2; Syn-2; source: endogenous, bEnd3 mouse brain endothelial cells (fixed, permeabilized)) MSVTYDDSVGVEVSSDSFWEVGNYKRTVKRIDDGHRLCGDLMNCLHERARIEKAYAQQLTEWARRWRQLVEKGPQYGTVEKAWIAVMSEAERVSELHLEVKASLMNEDFEKIKNWQKEAFHKQMMGGFKETKEAEDGFRKAQKPWAKKLKEVEAAKKAHHTACKEEKLAISREANSKADPSLNPEQLKKLQDKIEKCKQDVLKTKDKYEKSLKELDQTTPQYMENMEQVFEQCQQFEEKRLRFFREVLLEVQKHLDLSNVASYKTIYRELEQSIKAADAVEDLRWFRANHGPGMAMNWPQFEEWSADLNRTLSRREKKKAVDGVTLTGINQTGDQSGQNKPGSNLSVPSNPAQSTQLQSSYNPFEDEDDTGSSISEKEDIKAKNVSSYEKTQTYPTDWSDDESNNPFSSTDANGDSNPFDEDTTSGTEVRVRALYDYEGQEHDELSFKAGDELTKIEDEDEQGWCKGRLDSGQVGLYPANYVEAIQ
– | ~80 | – | – | – | – | B1
